# Measurements as given in patent US6933149B2, “Culture system for mouse tracheal epithelial cells” (North Carolina State University, priority 2001, dated 2005).
# Test system: MTE cell cultures
# Assay: IL-13 treatment of MTE cell cultures, Periodic Acid Schiff-stained cross-sections
# Type: cell-based, mouse
# Details: for proliferation of MTE cell cultures in response to IL-13: Method 2 cultures (5% serum until air/liquid interface)
# Experimental: FIGS. 2A and 2B includes two photographs of Periodic Acid Schiff-stained cross-sections of MTE cell cultures. FIG. 2B depicts the control culture that was only exposed to the normal media required for MTE cell growth, while FIG. 2A depicts the IL-13-treated culture which was exposed to recombinant murine IL-13 (10ng/ml) for 9 days.
# Epithelial cells isolated from the trachea of two mice were used to seed a one cm^2 area. Cells were placed in the apical chamber of the culture insert in medium comprising DMEM F12 plus additives (see above table). The basolateral chamber was supplied with medium and 10% FCS for 24 hours, after which FCS was no longer added to the basolateral media. Cells were maintained for 5 days and then the apical media was removed to create an air/liquid interface. Cells were then maintained in culture for approximately 16 more days.
# The present methods were also used to achieve MTE cultures grown with 5% serum until the air/liquid interface is established. This is referred to as “Method 2—Combination.” This approach allows for more rapid growth of the cells while removing the confounding effects of serum for the experimentation period. […] FIGS. 2A and 2B illustrate the increase in the epithelial cell number of cell cultures exposed to an IL-13 regimen. Specifically FIGS. 2A and 2B show two photographs of Periodic Acid Schiff-stained cross-sections of MTE cell cultures. FIG. 2A depicts an IL-13-treated culture that was exposed to recombinant murine IL-13 (10ng/ml) for 9 days while FIG. 2B is a photograph of a control culture that was only exposed to the normal media required for MTE cell growth.
molecule,measurement,setting,value
"IL-13: recombinant murine IL-13, an inflammatory mediator shown to mediate epithelial cell proliferation (protein, UniProt P20109 19-131, looked up) Interleukin-13: APGPVPRSVSLPLTLKELIEELSNITQDQTPLCNGSMVWSVDLAAGGFCVALDSLTNISNCNAIYRTQRILHGLCNRKAPTTVSSLPDTKIEVAHFITKLLSYTKQLFRHGPF",proliferation of MTE cell cultures in response to IL-13,,respond to IL-13 with proliferation
same,proliferation of MTE cell cultures in response to IL-13,listed as interleukin 13,proliferate
same,epithelial cell number,"recombinant murine IL-13 10ng/ml for 9 days vs control culture in normal media, FIGS. 2A and 2B",increase in epithelial cell number
